Assay results published in patent US20210061908A1 (IOMX THERAPEUTICS, published 2021).
Residue numbers refer to the chain shown, from its start.

T1: IGSF11 (VSIG3), construct used in SPR and BLI not stated (UniProt Q5DX21 23-241, limits assumed)
T1 sequence (looked up): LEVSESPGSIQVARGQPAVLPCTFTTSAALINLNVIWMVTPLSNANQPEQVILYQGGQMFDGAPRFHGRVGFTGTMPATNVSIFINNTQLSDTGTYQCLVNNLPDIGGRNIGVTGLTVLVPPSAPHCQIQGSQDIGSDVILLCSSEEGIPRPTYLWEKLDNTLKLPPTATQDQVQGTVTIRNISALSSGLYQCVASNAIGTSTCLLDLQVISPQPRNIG

T2: extracellular domain (ECD) of human IGSF11 (VSIG3), HIS-tagged (human, UniProt Q5DX21 23-241, biotinylated in the ELISA of Example 4 (site not stated))
T2 construct: also called HIS-IGSF11; IGSF11-HIS; not shown: HIS6 tag
T2 sequence: T1 sequence (looked up)

B1: human IGSF11 (VSIG3) expressed on the surface of cells (receptor)
chain: LEVSESPGSIQVARGQPAVLPCTFTTSAALINLNVIWMVTPLSNANQPEQVILYQGGQMFDGAPRFHGRVGFTGTMPATNVSIFINNTQLSDTGTYQCLVNNLPDIGGRNIGVTGLTVLVPPSAPHCQIQGSQDIGSDVILLCSSEEGIPRPTYLWEKLDNTLKLPPTATQDQVQGTVTIRNISALSSGLYQCVASNAIGTSTCLLDLQVISPQPRNIGLIAGAIGTGAVIIIFCIALILGAFFYWRSKNKEEEEEEIPNEIREDDLPPKCSSAKAFHTEISSSDNNTLTSSNAYNSRYWSNNPKVHRNTESVSHFSDLGQSFSFHSGNANIPSIYANGTHLVPGQHKTLVVTANRGSSPQVMSRSNGSVSRKPRPPHTHSYTISHATLERIGAVPVMVPAQSRAGSLV
notes: one molecule for all cell lines; the cell line is named under assay; also called IGSF11-expressing cells; HEK-OE
B2: B-002 (chain-swapped, human IgG1 format) (antibody, V domains shown)
VH: EVQLVESGGGLIQPGGSLRLSCAASGFTVSSNYMSWVRQAPGKGLEWVSVIYSGGSTYYADSVKGRFTISRDNSKNTLYLQMNSLRAEDTAVYYCARGNPYYYGDLQVNFDYWGQGTLVTVSS
VL: QAVVTQEPSLTVSPGGTVTLTCASSTGAVTSGYYPNWFQQKPGQAPRALIYSTSNKHSWTPARFSGSLLGGKAALTLSGVQPEDEAEYYCLLYYGGAWVFGGGTKLTVL
notes: VH of A-006 with VL of A-012; IgG1 format; also called B2; Chains-B-002
B3: B-004 (chain-swapped, human IgG1 format) (antibody, V domains shown)
VH: B2 VH with V5L, A24V
VL: B2 VL with A48P, E83D, A97D
notes: VH of A-012 with VL of A-006; IgG1 format; also called B4; Chains-B-004
B4: B-006 (chain-swapped, human IgG1 format) (antibody, V domains shown)
VH: B2 VH
VL: B2 VL with G16E, K41R, H57D
notes: VH of A-006 with VL of A-005; IgG1 format; also called B6; Chains-B-006
B5: B-001 (chain-swapped, human IgG1 format) (antibody, V domains shown)
VH: B2 VH with V5L, A24V
VL: B2 VL with G32A, E87D
notes: VH of A-012 with VL of A-013; IgG1 format; also called B1; Chains-B-001

Legend:
[1] = target: T3, A-015 (scFv-Fc format, mouse IgG2A Fc); experiment: FACS on CD14-gated monocytes from PBMC of healthy donor A, 30 min at 4 C, fluorescently labelled secondary antibody
T3 construct: scFv genetically fused to mouse IgG2A Fc, expressed in HEK293; also called scFv-Fc-format of antibody A-015; anti-IGSF11 scFv-Fc (mouse IgG2A)

[2] = target: B1; experiment: FACS, IgG1 format, DMS 273 cells
[3] = target: T1, IGSF11 (VSIG3), construct used in SPR …; experiment: SPR (Biacore), chain-swapped IgG1; IGSF11 construct not stated
[4] = target: B1; experiment: FACS, IgG1 format, recombinant HEK cells expressing IGSF11 (HEK-OE)
[5] = target: B1; experiment: FACS on DMS 273 cells treated with scrambled control siRNA (SC)
[6] = target: B1; experiment: FACS on M579-A2-luc cells treated with scrambled control siRNA (SC)
CL-11 (C) [7] = experiment: FACS on CL-11 cells (do not express IGSF11; negative cell line) treated with IGSF11 siRNA (KD)
[8] = target: B1; experiment: FACS on DMS 273 cells treated with IGSF11 siRNA (KD: target knocked down, specificity control)
[9] = target: B1; experiment: FACS on M579-A2-luc cells treated with IGSF11 siRNA (KD: target knocked down, specificity control)
CL-11 (C) [10] = experiment: FACS on CL-11 cells (do not express IGSF11; negative cell line) treated with scrambled control siRNA (SC)
[11] = target: T2, extracellular domain (ECD) of human …; experiment: ELISA: IGSF11-HIS coated, IgG1 antibody titrated, anti-human antibody-HRP and TMB; X-axis nM and Y-axis absorbance per legend paragraph 30 [B]
[12] = target: T2, extracellular domain (ECD) of human …; experiment: blocking ELISA (Example 5): IgG titrated and pre-incubated with 200 nM his-tagged IGSF11 ECD, complexes added to immobilised VSIR-Fc, bound IGSF11 detected with anti-hexahistidine-HRP; blocked ligand: VSIR-Fc [B]
[13] = target: T2, extracellular domain (ECD) of human …; experiment: ELISA: IGSF11-HIS coated, IgG1 antibody titrated, anti-human antibody-HRP and TMB; X-axis nM and Y-axis absorbance per legend paragraph 30
[14] = target: T2, extracellular domain (ECD) of human …; experiment: blocking ELISA (Example 5): IgG titrated and pre-incubated with 200 nM his-tagged IGSF11 ECD, complexes added to immobilised VSIR-Fc, bound IGSF11 detected with anti-hexahistidine-HRP; blocked ligand: VSIR-Fc
[15] = target: T2, extracellular domain (ECD) of human …; experiment: as above; remark: listed apart in the source

T3 sequence (VH, as listed by the source, chain 1 of 2): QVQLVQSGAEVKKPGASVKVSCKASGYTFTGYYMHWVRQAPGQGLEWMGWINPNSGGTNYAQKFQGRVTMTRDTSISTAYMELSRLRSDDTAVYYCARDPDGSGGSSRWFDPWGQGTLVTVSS
T3 sequence (VL, as listed by the source, chain 2 of 2): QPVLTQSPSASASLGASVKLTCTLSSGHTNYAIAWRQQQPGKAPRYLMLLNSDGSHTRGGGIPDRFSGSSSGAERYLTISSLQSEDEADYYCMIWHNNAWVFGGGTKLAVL

Binder: B1
- binding result [1]: binds

Binder: B2
- EC50 [2]: > 50 nM
- Kd [3]: 100 to 250 nM
- EC50 [4]: 10 to 50 nM
- percentage binding [5]: 80.1%
- percentage binding [6]: 70.7%
- percentage binding (CL-11 (C) [7]): 4.54%
- percentage binding [8]: 8.68%
- percentage binding [9]: 2.77%
- percentage binding (CL-11 (C) [10]): 3%
- EC50 (read off the curve) [11]: ~0.01 nM
- IC50 (read off the curve) [12]: ~4 nM

Binder: B3
- EC50 (read off the curve) [11]: ~0.02 nM
- IC50 (read off the curve) [12]: ~5 nM

Binder: B4
- EC50 (read off the curve) [13]: ~0.02 nM
- IC50 (read off the curve) [14]: ~5 nM

Binder: B5
- Kd [3]: 250 to 500 nM
- EC50 [4]: 10 to 50 nM
- IC50 (read off the curve) [15]: ~2 nM
